Measurements from patent US20170296650A1.

Columns and labels:
[1] = biological target: hCMV gH (HEK293T transfectant) (hCMV), P12824; assay: cell competition; competitor 3G16-biotin; settings: remark: other sources report otherwise
[2] = biological target: hCMV gH (HEK293T transfectant) (hCMV), P12824; assay: cell competition; competitor 11B12-biotin; settings: remark: other sources report otherwise
[3] = biological target: hCMV gH (HEK293T transfectant) (hCMV), P12824; assay: cell competition; competitor 13H11-biotin; settings: remark: other sources report otherwise
[4] = biological target: gB 69-78 peptide (hCMV) (UniProt P06473); assay: ELISA, gB 69-78 peptide

Binder | Inhibition of binding (%) [1] | Inhibition of binding (%) [2] | Inhibition of binding (%) [3] | EC50 [4]
11B12 (antibody, V domains shown) VH: QMQLVQSGPQVKKPGTSVKVSCKASGFTFTSSAMQWVRQARGQRPEWIGWIVLGSGNTNYAQKFQERVTLTRDMSTATAYMELSSLRSEDTAVYYCAADRGRGGYNVYTYWGQGTLVAVSS VL: EIVMTQSPGTLSLSPGERATLSCRASQTISNTYVAWYQQKPGQAPRLLIYGASSRATGIPDRFSGSGSGTDFTLTIRRLEPEDFAVYYCQQNGQSPWTFGQGTNVEIK | 0% | 100% | 100% | –
6B4 (antibody, V domains shown) VH: QVQLVESGGGVVQPGRSLRLSCAASGFRFNEFNMHWVRQAPGKGLEWVAVISIDGRHKYNADSVEGRFTISRDNSRNTLYLQMNSLRVEDTALYYCVTDGKAVDGFSGILEFWGQGTPVTVST VL: EIVLTQSPATLSLSPGERATLSCWASQSVGGYLAWYQQKPGQAPRLLIYDASIRATGIPARFSGSGSGTHFTLTINSLEPEDFAVYYCQQRNNWPPLTFGGGTKVEIK | – | – | – | 0.044 µg/mL
13H11 (antibody, V domains shown) VH: QVQLVQSGAEVKKPGASVKVSCKASGYTFTNYYIHWVRQAPGQGLEWMGIIHPSSGGTSYAQKFQGRVTMTRDTSTSTVSMDLSSLRSEDTAVYYCGRAFRILGLSDVFVNDWGQGTVVTVSS VL: DIQMTQSPSSLSASVGDRVTITCRASQGINNYLAWYQQKPGKVPKLLIYAASTLQSGVPSRFSGSGSGTAFTLTILSLQPEDVATYYCQKYNSAPFTFGPGTKVDIK | 0% | 100% | 100% | –
3G16 (antibody, V domains shown) VH: RAQLVQSAAEMKNPGASVKVSCEASGYTFTGYYVHWMRQAPGQGLEWMGWINPMTGATKSPQKFQGRVTMTRDTSTTATHIELTRLRSDDSAVFFCARGGPTSTRITGKRHFDLWGRGTLITVAS VL: QSALTQPASVSGSPGESITISCTGTISDVGAYNSVSWYQQHSGTAPELIIYDVTNRPAGVSSRFSGSKSGNTASLTISWLQSEDEAEYYCSSYTTSDTYVFGSGTQVTVL | 100% | 0% | 0% | –
